Results on one substance are retold here after paper PMC4018323.

The assay deals with GOLPH3 (endogenous) (human (endogenous in HeLa)) (UniProt Q9H4A6). The assay is described as follows: co-IP. The settings on record: remark: other sources report otherwise.
Sequence of GOLPH3 (endogenous) (human (endogenous in HeLa)) (Q9H4A6 whole entry): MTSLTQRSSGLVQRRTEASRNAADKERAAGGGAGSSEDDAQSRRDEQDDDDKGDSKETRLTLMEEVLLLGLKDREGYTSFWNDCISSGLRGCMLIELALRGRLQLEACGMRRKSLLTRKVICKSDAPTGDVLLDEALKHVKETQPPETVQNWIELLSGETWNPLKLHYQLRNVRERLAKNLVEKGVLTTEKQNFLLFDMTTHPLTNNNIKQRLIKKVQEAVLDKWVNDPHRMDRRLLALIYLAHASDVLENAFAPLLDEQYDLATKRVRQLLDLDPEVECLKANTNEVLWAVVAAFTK

In the case of MYO18A (endogenous), Q92614 1-2054, the fold increase in association after CPT versus DMSO control is 3.7 fold.
